Measured values taken from paper PMC9303311.

B1: 5'FAM-ssDNA57 (ssDNA)
DNA: TGGAGAATCCCGGTGCCGAGGCCGCTCAATTGGTCGTAGACAGCTCTAGCACCGCTT

Assays:
SAMHD1 T592E = SAMHD1 T592E (Homo sapiens, UniProt Q9Y3Z3 1-626, T592E); experiment: fluorescence anisotropy
SAMHD1 wild-type = SAMHD1 wild-type (Homo sapiens, UniProt Q9Y3Z3 1-626); experiment: fluorescence anisotropy
SAMHD1 wild-type, sequence (Q9Y3Z3 whole entry): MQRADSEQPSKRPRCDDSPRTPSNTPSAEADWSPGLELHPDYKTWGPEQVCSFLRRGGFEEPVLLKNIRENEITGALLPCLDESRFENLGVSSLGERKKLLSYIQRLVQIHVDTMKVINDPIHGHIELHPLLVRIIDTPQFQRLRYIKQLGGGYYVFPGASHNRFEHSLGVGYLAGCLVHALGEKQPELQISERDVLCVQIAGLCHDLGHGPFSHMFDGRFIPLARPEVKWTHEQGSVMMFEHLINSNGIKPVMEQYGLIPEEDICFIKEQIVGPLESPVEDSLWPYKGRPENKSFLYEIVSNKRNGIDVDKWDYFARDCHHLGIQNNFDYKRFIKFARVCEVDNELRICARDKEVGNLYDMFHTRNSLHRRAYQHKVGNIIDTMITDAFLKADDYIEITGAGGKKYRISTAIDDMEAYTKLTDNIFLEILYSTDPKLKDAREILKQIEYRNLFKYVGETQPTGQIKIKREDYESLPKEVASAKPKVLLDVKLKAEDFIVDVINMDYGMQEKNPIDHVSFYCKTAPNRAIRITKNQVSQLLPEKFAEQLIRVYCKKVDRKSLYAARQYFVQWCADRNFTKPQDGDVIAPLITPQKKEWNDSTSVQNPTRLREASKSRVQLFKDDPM

SAMHD1 T592E, sequence (Q9Y3Z3 whole entry T592E): as the sequence (Q9Y3Z3 whole entry) above, with T592E counted along it

| Binder | Kd (SAMHD1 T592E) [nM] | Kd (SAMHD1 wild-type) [nM] |
| --- | --- | --- |
| B1 | 431 ± 25 |  |
| CGCCT (XNA, phosphorothioate at every internucleotide linkage, mixed Rp/Sp) [5'FAM-PsDNA5] | 283 ± 8 | 119 ± 7 |
